The target of the experiment is VEGF-Fc (in house made by ImmuneOnco).
Chain of VEGF-Fc (in house made by ImmuneOnco) (chain, as listed by the source limits assumed): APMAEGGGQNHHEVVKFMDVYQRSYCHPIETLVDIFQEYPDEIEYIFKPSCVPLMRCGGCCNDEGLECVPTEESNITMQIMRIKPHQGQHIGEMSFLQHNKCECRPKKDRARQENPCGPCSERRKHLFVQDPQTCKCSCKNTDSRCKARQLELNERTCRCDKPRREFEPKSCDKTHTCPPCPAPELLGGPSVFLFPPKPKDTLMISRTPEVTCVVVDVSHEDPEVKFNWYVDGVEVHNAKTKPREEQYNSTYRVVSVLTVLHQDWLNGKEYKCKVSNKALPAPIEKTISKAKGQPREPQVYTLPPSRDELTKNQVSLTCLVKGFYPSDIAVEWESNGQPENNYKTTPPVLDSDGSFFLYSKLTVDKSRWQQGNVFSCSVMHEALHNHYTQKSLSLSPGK

With VEGFR1D2-Fc (Fc fusion), the IC50 of inhibition of VEGF-Fc induced CD69 expression (MFI) on Jurkat-CVR cells was 2.38 nM.

Source of the values: US20260274958A1.
